Assay results taken from the Human Domainome abundance scans (Beltran et al. 2025).

B1: Intersectin-1, residues 909 to 971; numbered along this chain, Q15811 (parent)
chain: QGEKVEGLQAQALYPWRAKKDNHLNFNKNDVITVLEQQDMWWFGEVQGQKGWFPKSYVKLISG

Variants of: B1
Assay: abundance fitness (aPCA) (normalised: wild type 0, dead -1); higher = more abundant; growth selection in yeast, the domain comes from the species named
Conditions: Homo sapiens

Abundance fitness of substitutions, site by site:
E36: A -0.026; D -0.761; C -0.015
K28: M -0.208; T 0.208; H -0.253; V -0.256; R -0.232; Y -0.254; E -0.173; N -0.563; I -0.649; D -0.145; C -0.172; G -0.203; P -0.584; Q -0.197; A -0.264; L -0.462
N29: E -0.024; Y -0.282; K -0.324; M -0.034; A -0.113; T -0.311; G -0.031; P -0.728; Q -0.041; S -0.128; H 0.104; C -0.185; W -0.345; L -0.269; D -0.081; R -0.172; F -0.196
N25: G -0.081; H 0.009; R -0.177; D -0.066; V -0.207; S -0.074; C -0.057; A -0.064; L -0.28; E -0.08; W -0.462; K 0.115; P -0.451; F -0.491; M -0.087
K20: V -0.117; A 0.001; W -0.156; Y -0.15; N 0.053; T -0.079; H -0.133; R -0.078; D -0.097; Q -0.171; S -0.011; L -0.176; I -0.092; F -0.101; P -0.374; M -0.06
L24: F -0.466; K -1.14; I -0.359; T -0.694; Q -0.694; A -0.436; C -0.199; P -0.383; E -0.591; S -0.867; N -0.563; M -0.611; W -0.778; D -1.26
V34: P -0.646; R -0.776; L -0.343; G -0.455; E -0.549; M -0.772; C -0.427; S -0.424; Y -0.856; T -0.711; W -0.524; I 0.221
W16: T -0.646; Q -0.396; E -0.888; V -0.357; S -0.053; M -0.281; C -0.157; G -0.744; P -0.691; K -0.427; N -0.199; Y -0.32; L -0.046; R -0.115; F -0.092; H -0.051; I 0.126
F26: M 0.014; C -0.723; L -0.078; I -0.072; S -0.866; R -1.01; Q -1; E -1.07; V -0.335; A -0.767; G -1.02
K19: C -0.048; F 0.032; V 0.021; I -0.028; E 0; H -0.114; Y -0.078; N -0.055; S 0.008; L -0.045; A -0.018; P -0.139; Q 0.069; T 0.033; D 0.026
D21: G -0.068; H 0.01; C -0.167; A 0; V 0.007; L -0.012; Y -0.102; M -0.434; R -0.125; E -0.096; Q 0.145; N -0.265; F -0.131; S -0.071; P -0.005; W -0.112; T -0.03
D30: G -0.75; H -0.511; V -0.357; T -0.15; R -0.778; W -0.331; P -0.759; M -0.252; Q -0.036; K -0.783; F -0.742; E -0.089; I -0.677; Y -0.469; N -0.396; C -0.166; S -0.259; L -0.751
A18: C -0.189; L -0.274; K -0.059; T -0.065; M -0.09; N -0.086; E -0.234; Q -0.494; R -0.267; D -0.109; V -0.215; S -0.058; Y -0.365; W -0.362; P -0.034; G 0.043
H23: L -0.114; Q -0.135; W -0.04; T -0.207; Y -0.171; A -0.245; V -0.172; M -0.231; S -0.316; F -0.123; I -0.551; C -0.492; G -0.164; R -0.254; P -0.596
L35: E -0.243; G -0.033; K 0.168; Q -0.058; A -0.612; W 0.111; C 0.145; R -0.173; F -0.284; M -0.019; S -0.114; T -0.327; V -0.34
T33: P -0.897; G -0.196; S -0.104; D 0.086; E -0.089; C -0.159; I -0.213; N -0.233; V -0.113; R -0.034; Y -0.016; K -0.1; M -0.068; F -0.242; A -0.071; L -0.158; H -0.201; W -0.175
P15: N 0.087; T -0.059; G 0.115; Q 0.052; M 0.114; F -0.224; R -0.018; A 0.017; C -0.059; K -0.14; E 0.054; S 0.011; I -0.127; D -0.156; L -0.338; W -0.746; Y -0.269
N27: R -0.016; M -0.037; S -0.408; V 0.157; T -0.307; A -0.114; G -0.185; K -0.191; Q -0.143; E 0.054; H -0.708
V31: C -0.08; E -0.185; G -0.476; R -0.03; Q -0.102; H -0.117; L -0.022; I 0.011; F -0.022; M 0.003; W -0.132; P -0.325; S -0.224; Y -0.058; K -0.006; D -0.484; A -0.274
I32: K -0.965; G -0.658; P -0.42; H -0.692; F -0.423; R -0.766; V -0.052; D -0.568; M -0.446; T -0.97; E -1.03; L -0.23; A -0.7; W -0.869; Q -1
N22: A -0.118; K 0.022; G -0.018; W -0.172; L -0.279; S 0.036; T 0.003; C 0.051; Q 0.015; P 0.037; V -0.313; M -0.4; H -0.301; R -0.142
Y14: V 0.011; F -0.725; L 0.009; Q -0.129; S -0.233; R -0.052; T -0.191; K -0.098; G -0.159; I -0.058; H -0.103; P -0.585
R17: F -0.141; W -0.24; D -0.163; A -0.19; K -0.359; P -0.293; E -0.049; H -0.108; S -0.043; L -0.021; T -0.097; V 0.061; M -0.081; Q -0.066; G -0.306
